Experiment [1] addresses recombinant BoHV-1 gE CT-His polypeptide (Bovine herpesvirus type 1) (UniProt Q08101). Put plainly: ELISA on coated gE CT-His, secondary antibody only (negative control). (ELISA stands for enzyme-linked immunosorbent assay.)
The target of experiment [2] is streptavidin (NEB, Cat #A00160) (UniProt P22629). Put plainly: ELISA, streptavidin well without peptide, secondary antibody only.
The target of experiment [3] is recombinant BoHV-1 gE CT-His polypeptide (Bovine herpesvirus type 1) (UniProt Q08101). Put plainly: competitive ELISA on gE CT-His; serum, then HRP-MAb 2H8F3 (competitor); negative control reference.

Chain of UniProt P22629 (P22629 37-163 limits assumed): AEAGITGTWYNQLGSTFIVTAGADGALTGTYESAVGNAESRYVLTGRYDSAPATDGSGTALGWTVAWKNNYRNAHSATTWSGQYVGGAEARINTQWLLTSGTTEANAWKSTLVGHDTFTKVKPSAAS

Consider “goat anti-mouse IgG [HRP] secondary antibody”, for which the O.D. 450 nm was 0.057 O.D. 450 nm in experiment [1] and 0.055 O.D. 450 nm in experiment [2].
In general, % Inhibition refers to the percentage by which the read-out fell short of the control. In the case of “inactivated, non-infected fetal calf serum (Atlas biologicals), negative control”, in experiment [3], the % Inhibition was found to be 0% and the S/N Ratio stood at 1.

Source of the values: patent publication US20210011017A1.
